Data as given in patent publication US7122636.
Where two headings read alike, the source gives them in different places.

T1: recombinant human IL-8, (ser-IL-8)72 (human, UniProt P10145 28-99)
T1 sequence (looked up): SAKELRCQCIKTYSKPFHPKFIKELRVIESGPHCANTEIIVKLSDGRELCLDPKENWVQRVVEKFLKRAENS

T2: β-TG (UniProt P02775 48-128)
T2 construct: also called b-TG
T2 sequence (looked up): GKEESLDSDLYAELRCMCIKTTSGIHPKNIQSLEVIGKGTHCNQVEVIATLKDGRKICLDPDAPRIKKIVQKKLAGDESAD

T3: PF4 (UniProt P02776 32-101)
T3 construct: also called platelet factor 4
T3 sequence (looked up): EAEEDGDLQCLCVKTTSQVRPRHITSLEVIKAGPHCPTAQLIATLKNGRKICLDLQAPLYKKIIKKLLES


Key:
[1] = target: T1, recombinant human IL-8, (ser-IL-8)72; experiment: cell-based or functional assay
[2] = target: T1, recombinant human IL-8, (ser-IL-8)72; experiment: 125I-IL-8 binding to human neutrophils, competition
[3] = target: T1, recombinant human IL-8, (ser-IL-8)72; experiment: as above; remark: listed apart in the source
[4] = target: T1, recombinant human IL-8, (ser-IL-8)72; experiment: 125I-IL-8 binding to human neutrophils, competition; against the chimeric F(ab)
[5] = target: T1, recombinant human IL-8, (ser-IL-8)72; experiment: 125I-IL-8 binding to human neutrophils, competition; against F(ab)-1
β-TG = target: T2, β-TG; experiment: cross reactivity test
PF4 = target: T3, PF4; experiment: cross reactivity test

Row | Binder | IC50 [3] | fold decrease in IL-8 binding [5] | further results
1 | 6G4V11N35A Fab (Fab, V domains shown) VH: EVQLVQSGGGLVQPGGSLRLSCAASGYSFSSHYMHWVRQAPGKGLEWVGYIDPSNGETTYNQKFKGRFTLSRDNSKNTAYLQMNSLRAEDTAVYYCARGDYRYNGDWFFDVWGQGTLVTVSS VL: DIQMTQSPSSLSASVGDRVTITCRSSQSLVHGIGATYLHWYQQKPGKAPKLLIYKVSNRFSGVPSRFSGSGSGTDFTLTISSLQPEDFATYYCSQSTHVPLTFGQGTKVEIKR | – | – | IC50, neutrophil chemotaxis [1]: 2.7 nM
2 | humanized 6G425 F(ab)-1 (Fab, V domains shown, Fab with human kappa I and human IgG1 CH1 constant domains; also called version 1; V1) VH: EVQLVESGGGLVQPGGSLRLSCAASGYSFSSHYMHWVRQAPGKGLEWVGYIDPSNGETTYNQKFKGRFTISRDNSKNTLYLQMNSLRAEDTAVYYCAARGDYRYNGDWFFDVWGQGT VL: DIQMTQSPSSLSASVGDRVTITCRSSQSLVHGIGNTYLHWYQQKPGKAPKLLIYYKVSNRFSGVPSRFSGSGSGTDFTLTISSLQPEDFATYYCSQSTHVPLTFGQGTKVEIKR | 63 nM | – | IC50 [2]: 40 nM; fold reduction in binding affinity [4]: 5.5 fold
3 | anti-IL-8 monoclonal antibody 5.12.14 (antibody, mouse IgG2a, V domains shown, mouse IgG2a from hybridoma ATCC HB 11553) VH: EVQLVESGGGLVPPGGSLKLSCAASGFIFSSYGMSWVRQTPGKSLELVATINNNGDSTYYPDSVKGRFTISRDNAKNTLYLQMSSLKSEDTAMFYCARALISSATWFGYWGQGTLVTVSA VL: DIVMTQSQKFMSTSVGDRVSVTCKASQNVGTNVAWYQQKPGQSPKALIYSSSYRYSGVPDRFTGSGSGTDFTLTISHVQSEDLADYFCQQYNIYPLTFGPGTKLELKR | – | – | binding result (β-TG): no binding; binding result (PF4): no binding

Continued, in another order:

Row | IC50 [3] | fold decrease in IL-8 binding [5] | Binder | further results
4 | 106 nM | < 2 fold | humanized 6G425 F(ab)-2 (Fab, V domains shown, template F(ab)-1; also called version 2) VH: EVQLVESGGGLVQPGGSLRLSCAASGYSFSSHYMHWVRQAPGKGLEWVGYIDPSNGETTYNQKFKGRATISRDNSKNTLYLQMNSLRAEDTAVYYCAARGDYRYNGDWFFDVWGQGT VL: DIQMTQSPSSLSASVGDRVTITCRSSQSLVHGIGNTYLHWYQQKPGKAPKLLIYYKVSNRFSGVPSRFSGSGSGTDFTLTISSLQPEDFATYYCSQSTHVPLTFGQGTKVEIKR | –
5 | 79.8 nM | < 2 fold | humanized 6G425 F(ab)-3 (Fab, V domains shown, template F(ab)-1; also called version 3) VH: EVQLVESGGGLVQPGGSLRLSCAASGYSFSSHYMHWVRQAPGKGLEWVGYIDPSNGETTYNQKFKGRFTISVDNSKNTLYLQMNSLRAEDTAVYYCAARGDYRYNGDWFFDVWGQGT VL: DIQMTQSPSSLSASVGDRVTITCRSSQSLVHGIGNTYLHWYQQKPGKAPKLLIYYKVSNRFSGVPSRFSGSGSGTDFTLTISSLQPEDFATYYCSQSTHVPLTFGQGTKVEIKR | –
